B1: H4H1232N (antibody, human IgG4, V domains shown)
VH: EVQLVESGGGLVKPGGSLRLSCAASGFTFRNYNINWVRQAPGKGLEWVSLISGSSSYIYYADSVKGRFTVSRDNAKNSLYLQMNSLRAEDTAVYYCARRTLSYYVMDVWGQGTTVTVSS
VL: DIQVTQSPSPLSASVGDRVTITCRASQGISNYLAWYQQKPGRVPQLLIYAASTLQSGVPSRFSGSGSGTDFTLTISSLQPEDVATYYCQKYNSAPYTFGQGTKLEIK
notes: human IgG4 Fc (H4H prefix)
B2: H4H2864P (antibody, human IgG4, V domains shown)
VH: EVQLVESGGGLAQPGGSLRLSCAASGFTFNNYAMTWVRQAPGKGLDWVSAISDSGRSTFSADSVKGRFTISRDNSKNTLYLQMDSLRAEDTALYYCAKHRNWNYPVFDYWGQGTLVTVSS
VL: DIQLTQSPSFLSASVGDRVTITCWASQGISSYLAWYQQKPGKAPKLLIYSASTLQSGVPSRFSGSGSGTEFTLTISSLQPEDFATYYCQQLNSYPFTFGPGTKVDIK
notes: human IgG4 Fc (H4H prefix)
B3: H4H1616N (antibody, human IgG4, V domains shown)
VH: EVELLESGGGLVQPGGSLRLSCAASGFTFSSYAMSWVRQAPGKGLEWVSSISGRVGSTHFADSVKGRFTFSRDNSKNTLYLQLSSLRAEDTAVYYCARSRGAAYFDYWGQGTLVTVSS
VL: DIQMTQSPSSLSASVGDRVTITCQANQDISNFLNWYQQRPGKAPNLLIYAASNLETGVPSRFSGSGSGTDFTFTISSLQPEDIATYYCQHYDNFPFTFGPGTKVDIK
notes: human IgG4 Fc (H4H prefix)
B4: H4H2645P (antibody, human IgG4, V domains shown)
VH: EVQLVESGGGLVQPGGSLRLSCAASGFTFSTYAMHWVRQAPGKGLEWVSSISGRGRNSDHADSVKGRFTISRDNSKNTLYLQMNSLRAEDTAVYYCARTEYFHHWGQGTLVTVSS
VL: DIQMTQSPSSLSASVGDRITITCRASQDINNYLAWFQQKPGKAPKSLIYGASSLQSGVPSKFSGSGSGTDFTLTISSLQPEDFATYYCQQYSSYPFTFGPGTKVDIK
notes: human IgG4 Fc (H4H prefix)

Molecular target: T1, natural Fel d1 (Indoor Biotech, #NA-FD1-2) (cat, UniProt P30438 23-92; P30440 18-109)
T1 construct: Bought natural heterodimeric glycoprotein, chains linked by disulfide bonds; also called nFel d1; nFel d 1
T1 sequence (P30438 other isoform, or with tags, fused parts or gaps, chain 1 of 2): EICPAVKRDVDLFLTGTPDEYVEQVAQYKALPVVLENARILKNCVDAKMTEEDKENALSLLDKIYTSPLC
T1 sequence (P30440 18-109, chain 2 of 2): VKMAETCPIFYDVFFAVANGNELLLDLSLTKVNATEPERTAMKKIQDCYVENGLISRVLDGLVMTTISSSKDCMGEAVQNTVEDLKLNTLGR
Assay: Octet BLI, mAb captured on anti-hFc tip, 500 nM nFel d1

| Amount of 500 nM nFel d1 Bound [nm] | Binder |
| --- | --- |
| 0.08 | B1 |
| 0.08 | B2 |
| 0.09 | B3 |
| 0.1 | B4 |

Molecular target: T1, natural Fel d1 (Indoor Biotech, …)
Assay: SPR (Biacore), mAb captured, natural Fel d1 injected, 25 C;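 note: rate constants obtained by fitting association and dissociation phases to a one-to-one binding model, with Kd and half-life derived from those rate constants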

| Kd [nM] | koff [s⁻¹] | kon [M⁻¹ s⁻¹] | t1/2 [min] | Binder |
| --- | --- | --- | --- | --- |
| 0.207 | 0.000331 | 1.6e+06 | 35 | B1 |
| 0.801 | 0.00135 | 1.68e+06 | 9 | B2 |
| 5.14 | 0.00124 | 241000 | 9 | B3 |
| 0.459 | 0.000261 | 569000 | 44 | B4 |

Molecular target: T1, natural Fel d1 (Indoor Biotech, …)
Assay: SPR (Biacore 2000), mAb captured via anti-human Fc, nFel d 1 injected, 25 C

| 600 nM nFel d 1 Bound (RU) | Kd [nM] | koff [s⁻¹] | kon [M⁻¹ s⁻¹] | t1/2 [min] | Binder |
| --- | --- | --- | --- | --- | --- |
| 42 | 0.155 | 0.000472 | 3.05e+06 | 24 | B1 |

Molecular target: T1, natural Fel d1 (Indoor Biotech, …)
Assay: Octet BLI sandwich; captured mAb-1 H4H1300N, which did not pre-complex with nFel d1; self-competition value subtracted

| Response of mAb-2 Binding to nFel d1 pre-complexed with mAb-1 [nm] | Binder |
| --- | --- |
| 0.02 | B1 |
| 0.06 | B2 |
| 0.06 | B3 |
| 0.05 | B4 |

Molecular target: T1, natural Fel d1 (Indoor Biotech, …)
Assay: Octet BLI sandwich; nFel d1 pre-complexed with captured mAb-1 H4H1232N (competitor); self-competition value subtracted

| Response of mAb-2 Binding to nFel d1 pre-complexed with mAb-1 [nm] | Binder |
| --- | --- |
| 0 | B1 |
| 0.71 | B2 |
| 0.54 | B3 |
| 0.75 | B4 |

Molecular target: T1, natural Fel d1 (Indoor Biotech, …)
Assay: Octet BLI sandwich; nFel d1 pre-complexed with captured mAb-1 H4H1238N (competitor); self-competition value subtracted

| Response of mAb-2 Binding to nFel d1 pre-complexed with mAb-1 [nm] | Binder |
| --- | --- |
| 0.76 | B1 |
| 0.62 | B2 |
| 0.43 | B3 |
| 0.62 | B4 |

Molecular target: T1, natural Fel d1 (Indoor Biotech, …)
Assay: Octet BLI sandwich; nFel d1 pre-complexed with captured mAb-1 H4H1616N (competitor); self-competition value subtracted

| Response of mAb-2 Binding to nFel d1 pre-complexed with mAb-1 [nm] | Binder |
| --- | --- |
| 0.18 | B1 |
| -0.01 | B2 |
| 0 | B3 |
| -0.01 | B4 |

Molecular target: T1, natural Fel d1 (Indoor Biotech, …)
Assay: Octet BLI sandwich; nFel d1 pre-complexed with captured mAb-1 H4H2597P (competitor); self-competition value subtracted

| Response of mAb-2 Binding to nFel d1 pre-complexed with mAb-1 [nm] | Binder |
| --- | --- |
| -0.03 | B1 |
| 0.54 | B2 |
| 0.4 | B3 |
| 0.55 | B4 |

Molecular target: T1, natural Fel d1 (Indoor Biotech, …)
Assay: Octet BLI sandwich; nFel d1 pre-complexed with captured mAb-1 H4H2636P (competitor); self-competition value subtracted

| Response of mAb-2 Binding to nFel d1 pre-complexed with mAb-1 [nm] | Binder |
| --- | --- |
| 0.29 | B1 |
| 0 | B2 |
| 0.01 | B3 |
| 0 | B4 |

Molecular target: T1, natural Fel d1 (Indoor Biotech, …)
Assay: Octet BLI sandwich; nFel d1 pre-complexed with captured mAb-1 H4H2645P (competitor); self-competition value subtracted

| Response of mAb-2 Binding to nFel d1 pre-complexed with mAb-1 [nm] | Binder |
| --- | --- |
| -0.01 | B2 |
| 0.01 | B3 |
| 0 | B4 |

Molecular target: T1, natural Fel d1 (Indoor Biotech, …)
Assay: Octet BLI sandwich; nFel d1 pre-complexed with captured mAb-1 H4H2864P (competitor); self-competition value subtracted

| Response of mAb-2 Binding to nFel d1 pre-complexed with mAb-1 [nm] | Binder |
| --- | --- |
| 0.3 | B1 |
| 0 | B2 |
| 0.01 | B3 |
| -0.01 | B4 |
